The text below walks through data of publication PMC4776307, “The Escherichia coli Cryptic Prophage Protein YfdR Binds to DnaA and Initiation of Chromosomal Replication Is Inhibited by Overexpression of the Gene Cluster yfdQ-yfdR-yfdS-yfdT” (Frontiers in Microbiology, 2016).

B2: DnaA (native, wild-type) (natural protein, Escherichia coli, UniProt P03004 1-467, looked up)
chain: MSLSLWQQCLARLQDELPATEFSMWIRPLQAELSDNTLALYAPNRFVLDWVRDKYLNNINGLLTSFCGADAPQLRFEVGTKPVTQTPQAAVTSNVAAPAQVAQTQPQRAAPSTRSGWDNVPAPAEPTYRSNVNVKHTFDNFVEGKSNQLARAAARQVADNPGGAYNPLFLYGGTGLGKTHLLHAVGNGIMARKPNAKVVYMHSERFVQDMVKALQNNAIEEFKRYYRSVDALLIDDIQFFANKERSQEEFFHTFNALLEGNQQIILTSDRYPKEINGVEDRLKSRFGWGLTVAIEPPELETRVAILMKKADENDIRLPGEVAFFIAKRLRSNVRELEGALNRVIANANFTGRAITIDFVREALRDLLALQEKLVTIDNIQKTVAEYYKIKVADLLSKRRSRSVARPRQMAMALAKELTNHSLPEIGDAFGGRDHTTVLHACRKIEQLREESHDIKEDFSNLIRTLSS
notes: DnaA, chromosomal replication initiator of Escherichia coli; called native, intact, wild-type DnaA; Untagged; In the bio-oriC pull-downs it stood as DnaA complexes (multimers) formed on a biotin-tagged oriC DNA fragment; also called native DnaA; wild-type DnaA (WT); source: purified

Holding throughout (conditions): both partners purified
The target in assay [1] is B2. Nature of the assay: pull-down; His-YfdR (10 pmol) with native DnaA or DnaA F46A in buffer R with 20 mM imidazole (20 uL; 2 mM ATP), on ice; Co2+ magnetic beads (Dynabeads); wash with 100 mM KCl and 50 mM imidazole; SDS-13% PAGE, silver staining; bead-bound DnaA subtracted.
The target of assay [2] is T1, biotin-tagged DnaA (bio-DnaA) (Escherichia coli, UniProt P03004 1-467, biotin (biotin-tagged)).
T1 construct: DnaA, chromosomal replication initiator of Escherichia coli; also called bio-DnaA (Full); source: purified, as reported (Ishida et al., 2004)
T1 sequence (looked up): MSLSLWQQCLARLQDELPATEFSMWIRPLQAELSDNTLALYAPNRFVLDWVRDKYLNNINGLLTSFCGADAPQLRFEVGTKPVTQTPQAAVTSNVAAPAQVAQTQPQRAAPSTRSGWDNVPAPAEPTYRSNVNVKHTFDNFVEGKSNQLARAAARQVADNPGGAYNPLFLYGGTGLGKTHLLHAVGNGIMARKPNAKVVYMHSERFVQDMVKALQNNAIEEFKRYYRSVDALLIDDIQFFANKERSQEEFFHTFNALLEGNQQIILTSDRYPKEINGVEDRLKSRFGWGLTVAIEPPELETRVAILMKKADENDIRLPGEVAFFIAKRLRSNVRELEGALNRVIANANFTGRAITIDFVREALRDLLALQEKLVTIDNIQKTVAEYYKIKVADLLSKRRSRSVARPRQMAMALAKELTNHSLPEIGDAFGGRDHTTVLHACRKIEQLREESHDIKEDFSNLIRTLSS
The assay is described as follows: pull-down; DiaA (10 pmol as monomer) with bio-DnaA (5 pmol) 5 min on ice, then purified His-YfdR for 10 min; streptavidin beads; SDS-PAGE, silver staining.

In assay [3] the target is T2, DnaB-DnaC complex (Escherichia coli, UniProt P0ACB0 1-471; P0AEF0 1-245).
T2 construct: DnaB replicative helicase of Escherichia coli (homohexamer); DnaC helicase loader of Escherichia coli; Formed beforehand from 7.5 pmol DnaB (as monomer) and 7.5 pmol DnaC; also called DnaB-DnaC complexes; source: DnaB and DnaC co-incubated on ice; copies: 6 +
The assay is described as follows: pull-down; DnaA (7.5 pmol) and bio-oriC (100 fmol) with DnaB-DnaC complex (7.5 pmol each) 5 min on ice, then His-YfdR for 10 min; streptavidin beads; SDS-12% PAGE, silver staining.

The target of assay [4] is T1, biotin-tagged DnaA (bio-DnaA). Nature of the assay: pull-down; bio-DnaA (5 pmol) first incubated with purified DiaA (10 pmol), then with protein extracts of cells carrying pQRST or pBAD18; streptavidin beads; SDS-PAGE, silver staining.
For assay [5], the target named is B2. Nature of the assay: pull-down; DnaA (7.5 pmol) and bio-oriC (100 fmol) with His-DiaA (10 pmol as monomer) 5 min on ice, then His-YfdR for 10 min; streptavidin beads; SDS-15% PAGE, silver staining.

T2 sequence (P0ACB0 whole entry, chain 1 of 2): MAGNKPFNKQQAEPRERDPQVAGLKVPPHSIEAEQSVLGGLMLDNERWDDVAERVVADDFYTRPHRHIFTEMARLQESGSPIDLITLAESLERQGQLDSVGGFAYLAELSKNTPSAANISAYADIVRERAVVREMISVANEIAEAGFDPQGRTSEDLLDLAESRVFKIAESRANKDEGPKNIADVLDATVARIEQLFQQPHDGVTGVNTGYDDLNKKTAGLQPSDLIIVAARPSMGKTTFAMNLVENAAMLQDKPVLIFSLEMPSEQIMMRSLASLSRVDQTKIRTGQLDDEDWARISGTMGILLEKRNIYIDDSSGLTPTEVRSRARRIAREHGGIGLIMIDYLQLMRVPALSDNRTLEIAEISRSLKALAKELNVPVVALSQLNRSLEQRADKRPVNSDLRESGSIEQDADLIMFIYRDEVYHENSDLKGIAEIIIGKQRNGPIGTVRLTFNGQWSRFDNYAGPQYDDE
T2 sequence (P0AEF0 whole entry, chain 2 of 2): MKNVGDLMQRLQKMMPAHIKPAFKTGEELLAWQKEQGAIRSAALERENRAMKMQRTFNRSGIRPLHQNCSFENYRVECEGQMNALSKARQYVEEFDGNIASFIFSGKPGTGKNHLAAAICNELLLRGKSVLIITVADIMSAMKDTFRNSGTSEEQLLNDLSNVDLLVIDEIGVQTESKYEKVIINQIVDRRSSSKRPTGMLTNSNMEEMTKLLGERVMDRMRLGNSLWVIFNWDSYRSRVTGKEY

B1: His-tagged YfdR (His-YfdR) (natural protein, Escherichia coli, UniProt P76514 1-178, looked up)
chain: MSFIKTFSGKHFYYDKINKDDIVINDIAVSLSNICRFAGHLSHFYSVAQHAVLCSQLVPQEFAFEALMHDATEAYCQDIPAPLKRLLPDYKRMEEKIDAVIREKYGLPPVMSTPVKYADLIMLATERRDLGLDDGSFWPVLEGIPATEMFNVIPLAPGHAYGMFMERFNDLSELRKCA
notes: YfdR of the cryptic prophage CPS-53 of Escherichia coli; amplified from pSSP with a forward primer that begins at the ATG of yfdR (nogu10) and nogu11, cloned NheI-EcoRI into pBAD/HisB; also called purified YfdR; source: E. coli MC1061 carrying pYfdR (pBAD/HisB), arabinose-induced, purified (Ni-NTA agarose)
In the case of B1, the binding result in assay [1] and in assay [2] was “binds” in each case.

Regarding B2, the binding result in assay [3] is “binds”.

B3: DiaA (natural protein, Escherichia coli, UniProt P66817 1-196, looked up)
chain: MQERIKACFTESIQTQIAAAEALPDAISRAAMTLVQSLLNGNKILCCGNGTSAANAQHFAASMINRFETERPSLPAIALNTDNVVLTAIANDRLHDEVYAKQVRALGHAGDVLLAISTRGNSRDIVKAVEAAVTRDMTIVALTGYDGGELAGLLGPQDVEIRIPSHRSARIQEMHMLTVNCLCDLIDNTLFPHQDD
notes: results and legends say only DiaA; also called His-DiaA; purified DiaA; source: purified
As for B3, the binding result in assay [4] and in assay [5] was “binds” throughout.
